Measurements published in article PMC3077903 (Molecular microbiology, 2011).

T1: MinD (E. coli, UniProt P0AEZ3 1-270)
T1 sequence (looked up): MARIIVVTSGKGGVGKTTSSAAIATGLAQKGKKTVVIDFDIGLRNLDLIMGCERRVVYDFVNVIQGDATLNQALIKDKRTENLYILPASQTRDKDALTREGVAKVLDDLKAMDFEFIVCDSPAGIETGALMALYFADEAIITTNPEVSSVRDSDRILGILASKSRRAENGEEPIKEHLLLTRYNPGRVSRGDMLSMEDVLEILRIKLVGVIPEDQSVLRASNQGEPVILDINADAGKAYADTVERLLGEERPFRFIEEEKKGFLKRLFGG

T2: MinD-D152A (E. coli, UniProt P0AEZ3 1-270, D152A)
T2 sequence (looked up): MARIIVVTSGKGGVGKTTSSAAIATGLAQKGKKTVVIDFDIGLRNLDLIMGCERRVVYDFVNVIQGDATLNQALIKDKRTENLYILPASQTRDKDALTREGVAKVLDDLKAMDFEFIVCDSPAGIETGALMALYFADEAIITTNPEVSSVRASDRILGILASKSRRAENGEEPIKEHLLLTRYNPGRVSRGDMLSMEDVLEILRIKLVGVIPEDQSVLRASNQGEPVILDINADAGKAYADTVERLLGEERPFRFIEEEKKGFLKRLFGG


Key:
SEC = biological target: the molecule itself; test: SEC
MinD = biological target: T1, MinD; test: two-hybrid
MinD-D152A = biological target: T2, MinD-D152A; test: two-hybrid

| percent of the MinE-MinD β-galactosidase activity (MinD) [%] | β-galactosidase activity (MinD) | percent of the MinE-MinD β-galactosidase activity (MinD-D152A) [%] | β-galactosidase activity (MinD-D152A) | Binder | stoichiometry N (SEC) |
| --- | --- | --- | --- | --- | --- |
| – | – | – | – | MinDΔ10-D40A (domain or fragment, E. coli, UniProt P0AEZ3 1-260, looked up) MARIIVVTSGKGGVGKTTSSAAIATGLAQKGKKTVVIDFAIGLRNLDLIMGCERRVVYDFVNVIQGDATLNQALIKDKRTENLYILPASQTRDKDALTREGVAKVLDDLKAMDFEFIVCDSPAGIETGALMALYFADEAIITTNPEVSSVRDSDRILGILASKSRRAENGEEPIKEHLLLTRYNPGRVSRGDMLSMEDVLEILRIKLVGVIPEDQSVLRASNQGEPVILDINADAGKAYADTVERLLGEERPFRFIEEEK | 2 |
| 120 | 398 units of β-galactosidase activity | 8 | 28 units of β-galactosidase activity | MALLDFFLSRKKNTANIAKERLQIIVAERRR (domain or fragment, E. coli, UniProt P0A734 1-31, looked up) [MinE^1-31] | – |
| 100 | – | 44 | 145 units of β-galactosidase activity | MinE (full length) (natural protein, E. coli, UniProt P0A734 1-88, looked up) MALLDFFLSRKKNTANIAKERLQIIVAERRRSDAEPHYLPQLRKDILEVICKYVQIDPEMVTVQLEQKDGDISILELNVTLPEAEELK | – |
